Laboratory results published in article PMC2783235.
Values belong to the substance of their own block, whether it stands above or below them.

How the values were obtained:
[1] = target: A296C (single-Cys mutant of FT-HT-Xa) (S. cerevisiae) (UniProt D6VTK4); test: cross-linking
[2] = target: A296C (single-Cys mutant of FT-HT-Xa) (S. cerevisiae) (UniProt D6VTK4); test: cross-linking; remark: listed apart in the source
[3] = target: A296C (single-Cys mutant of FT-HT-Xa) (S. cerevisiae) (UniProt D6VTK4); test: SDS-PAGE and western blot of membranes
[4] = target: A296C (single-Cys mutant of FT-HT-Xa) (S. cerevisiae) (UniProt D6VTK4); test: cross-linking; remark: listed apart in the source
[5] = target: L64C (single-Cys mutant of FT-HT-Xa) (S. cerevisiae) (UniProt D6VTK4); test: cross-linking
[6] = target: L64C (single-Cys mutant of FT-HT-Xa) (S. cerevisiae) (UniProt D6VTK4); test: cross-linking; remark: listed apart in the source
[7] = target: L64C (single-Cys mutant of FT-HT-Xa) (S. cerevisiae) (UniProt D6VTK4); test: SDS-PAGE and western blot of membranes
[8] = target: L64C (single-Cys mutant of FT-HT-Xa) (S. cerevisiae) (UniProt D6VTK4); test: cross-linking; remark: listed apart in the source
[9] = target: L291C (single-Cys mutant of FT-HT-Xa) (S. cerevisiae) (UniProt D6VTK4); test: cross-linking
[10] = target: L291C (single-Cys mutant of FT-HT-Xa) (S. cerevisiae) (UniProt D6VTK4); test: cross-linking; remark: listed apart in the source
[11] = target: L291C (single-Cys mutant of FT-HT-Xa) (S. cerevisiae) (UniProt D6VTK4); test: SDS-PAGE and western blot of membranes
[12] = target: L291C (single-Cys mutant of FT-HT-Xa) (S. cerevisiae) (UniProt D6VTK4); test: cross-linking; remark: listed apart in the source
[13] = target: M294C (single-Cys mutant of FT-HT-Xa) (S. cerevisiae) (UniProt D6VTK4); test: cross-linking
[14] = target: M294C (single-Cys mutant of FT-HT-Xa) (S. cerevisiae) (UniProt D6VTK4); test: cross-linking; remark: listed apart in the source
[15] = target: M294C (single-Cys mutant of FT-HT-Xa) (S. cerevisiae) (UniProt D6VTK4); test: SDS-PAGE and western blot of membranes
[16] = target: M294C (single-Cys mutant of FT-HT-Xa) (S. cerevisiae) (UniProt D6VTK4); test: cross-linking; remark: listed apart in the source
[17] = target: S292C (single-Cys mutant of FT-HT-Xa) (S. cerevisiae) (UniProt D6VTK4); test: cross-linking
[18] = target: S292C (single-Cys mutant of FT-HT-Xa) (S. cerevisiae) (UniProt D6VTK4); test: cross-linking; remark: listed apart in the source
[19] = target: S292C (single-Cys mutant of FT-HT-Xa) (S. cerevisiae) (UniProt D6VTK4); test: SDS-PAGE and western blot of membranes
[20] = target: S292C (single-Cys mutant of FT-HT-Xa) (S. cerevisiae) (UniProt D6VTK4); test: cross-linking; remark: listed apart in the source
[21] = target: S293C (single-Cys mutant of FT-HT-Xa) (S. cerevisiae) (UniProt D6VTK4); test: cross-linking
[22] = target: S293C (single-Cys mutant of FT-HT-Xa) (S. cerevisiae) (UniProt D6VTK4); test: cross-linking; remark: listed apart in the source
[23] = target: S293C (single-Cys mutant of FT-HT-Xa) (S. cerevisiae) (UniProt D6VTK4); test: SDS-PAGE and western blot of membranes
[24] = target: S293C (single-Cys mutant of FT-HT-Xa) (S. cerevisiae) (UniProt D6VTK4); test: cross-linking; remark: listed apart in the source
[25] = target: T65C (single-Cys mutant of FT-HT-Xa) (S. cerevisiae) (UniProt D6VTK4); test: cross-linking
[26] = target: T65C (single-Cys mutant of FT-HT-Xa) (S. cerevisiae) (UniProt D6VTK4); test: cross-linking; remark: listed apart in the source
[27] = target: T65C (single-Cys mutant of FT-HT-Xa) (S. cerevisiae) (UniProt D6VTK4); test: SDS-PAGE and western blot of membranes
[28] = target: T65C (single-Cys mutant of FT-HT-Xa) (S. cerevisiae) (UniProt D6VTK4); test: cross-linking; remark: listed apart in the source
[29] = target: W295C (single-Cys mutant of FT-HT-Xa) (S. cerevisiae) (UniProt D6VTK4); test: cross-linking
[30] = target: W295C (single-Cys mutant of FT-HT-Xa) (S. cerevisiae) (UniProt D6VTK4); test: cross-linking; remark: listed apart in the source
[31] = target: W295C (single-Cys mutant of FT-HT-Xa) (S. cerevisiae) (UniProt D6VTK4); test: SDS-PAGE and western blot of membranes
[32] = target: W295C (single-Cys mutant of FT-HT-Xa) (S. cerevisiae) (UniProt D6VTK4); test: cross-linking; remark: listed apart in the source

Substance: L64C (single-Cys mutant of FT-HT-Xa) (from UniProt D6VTK4 1-431) (receptor)
percent dimer [5]: 14.6% | percent dimer [6]: 13.6% | percent dimer [7]: 15.8% | percent dimer [8]: 11.3%

Substance: M294C (single-Cys mutant of FT-HT-Xa) (from UniProt D6VTK4 1-431) (receptor)
percent dimer [13]: 57.8% | percent dimer [14]: 50.8% | percent dimer [15]: 27% | percent dimer [16]: 75.6%

Substance: S293C (single-Cys mutant of FT-HT-Xa) (from UniProt D6VTK4 1-431) (receptor)
percent dimer [21]: 38.5% | percent dimer [22]: 44% | percent dimer [23]: 21.1% | percent dimer [24]: 70.2%

Substance: W295C (single-Cys mutant of FT-HT-Xa) (from UniProt D6VTK4 1-431) (receptor)
percent dimer [29]: 76.2% | percent dimer [30]: 86.3% | percent dimer [31]: 15.7% | percent dimer [32]: 95.2%

Second part, the substance after the results:

percent dimer [1]: 73.6% | percent dimer [2]: 82.1% | percent dimer [3]: 14.8% | percent dimer [4]: 91.1%
Substance: A296C (single-Cys mutant of FT-HT-Xa) (from UniProt D6VTK4 1-431) (receptor)

percent dimer [9]: 52% | percent dimer [10]: 44.5% | percent dimer [11]: 31.8% | percent dimer [12]: 66.4%
Substance: L291C (single-Cys mutant of FT-HT-Xa) (from UniProt D6VTK4 1-431) (receptor)

percent dimer [17]: 75.5% | percent dimer [18]: 65.9% | percent dimer [19]: 30.2% | percent dimer [20]: 82.3%
Substance: S292C (single-Cys mutant of FT-HT-Xa) (from UniProt D6VTK4 1-431) (receptor)

percent dimer [25]: 15.9% | percent dimer [26]: 12.8% | percent dimer [27]: 16.2% | percent dimer [28]: 14.4%
Substance: T65C (single-Cys mutant of FT-HT-Xa) (from UniProt D6VTK4 1-431) (receptor)
